Reference: paper PMC4678859, “PARN deadenylase is involved in miRNA-dependent degradation of TP53 mRNA in mammalian cells” (Nucleic Acids Research, 2015)

Target: GST-Ago-2 (full-length recombinant Ago-2) (UniProt Q9UKV8 1-859)
Assay: cell-based or functional assay

Chain of GST-Ago-2 (full-length recombinant Ago-2) (Q9UKV8 whole entry): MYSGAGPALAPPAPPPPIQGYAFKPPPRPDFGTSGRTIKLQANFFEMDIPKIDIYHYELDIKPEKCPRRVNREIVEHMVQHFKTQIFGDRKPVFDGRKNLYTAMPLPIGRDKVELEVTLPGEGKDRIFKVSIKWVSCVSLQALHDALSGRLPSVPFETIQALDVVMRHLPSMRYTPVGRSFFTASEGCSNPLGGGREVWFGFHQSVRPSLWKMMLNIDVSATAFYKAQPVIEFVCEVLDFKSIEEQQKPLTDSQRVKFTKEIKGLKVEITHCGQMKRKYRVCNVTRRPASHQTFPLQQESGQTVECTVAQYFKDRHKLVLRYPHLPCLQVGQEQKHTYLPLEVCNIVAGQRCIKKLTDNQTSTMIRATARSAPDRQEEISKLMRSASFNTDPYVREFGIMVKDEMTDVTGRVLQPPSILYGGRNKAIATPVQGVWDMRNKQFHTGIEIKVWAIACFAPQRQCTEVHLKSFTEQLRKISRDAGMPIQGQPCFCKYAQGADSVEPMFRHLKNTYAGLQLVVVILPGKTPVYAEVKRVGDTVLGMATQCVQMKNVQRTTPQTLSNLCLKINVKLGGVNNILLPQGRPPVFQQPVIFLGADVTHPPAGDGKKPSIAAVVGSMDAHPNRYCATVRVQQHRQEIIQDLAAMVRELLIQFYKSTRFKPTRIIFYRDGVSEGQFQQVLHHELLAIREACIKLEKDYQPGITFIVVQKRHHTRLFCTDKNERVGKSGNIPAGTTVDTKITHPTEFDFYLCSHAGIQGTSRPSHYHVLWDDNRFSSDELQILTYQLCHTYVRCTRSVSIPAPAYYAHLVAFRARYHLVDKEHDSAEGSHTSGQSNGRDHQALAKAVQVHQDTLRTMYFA

B1: His-PARN (full-length recombinant PARN) (enzyme, UniProt O95453 1-639, looked up)
chain: MEIIRSNFKSNLHKVYQAIEEADFFAIDGEFSGISDGPSVSALTNGFDTPEERYQKLKKHSMDFLLFQFGLCTFKYDYTDSKYITKSFNFYVFPKPFNRSSPDVKFVCQSSSIDFLASQGFDFNKVFRNGIPYLNQEEERQLREQYDEKRSQANGAGALSYVSPNTSKCPVTIPEDQKKFIDQVVEKIEDLLQSEENKNLDLEPCTGFQRKLIYQTLSWKYPKGIHVETLETEKKERYIVISKVDEEERKRREQQKHAKEQEELNDAVGFSRVIHAIANSGKLVIGHNMLLDVMHTVHQFYCPLPADLSEFKEMTTCVFPRLLDTKLMASTQPFKDIINNTSLAELEKRLKETPFNPPKVESAEGFPSYDTASEQLHEAGYDAYITGLCFISMANYLGSFLSPPKIHVSARSKLIEPFFNKLFLMRVMDIPYLNLEGPDLQPKRDHVLHVTFPKEWKTSDLYQLFSAFGNIQISWIDDTSAFVSLSQPEQVKIAVNTSKYAESYRIQTYAEYMGRKQEEKQIKRKWTEDSWKEADSKRLNPQCIPYTLQNHYYRNNSFTAPSTVGKRNLSPSQEEAGLEDGVSGEISDTELEQTDSCAEPLSEGRKKAKKLKRMKKELSPAGSISKNSPATLFEVPDTW
B1 was tested, and the “in vitro reconstituted deadenylation of radiolabeled L3(A30) RNA substrate, limiting amounts of His-PARN and increasing amounts of GST-Ago-2” value was 2.4 fold.
